# Experimental data reported in the supplement of paper PMC10899765.
# How the values were obtained:
# Conditions in all cases: 20 nM; 72 h
# MCF10A [1] = assay: 5+ nucleoli phenotype percent effect (relative to siNT 0% and siKIF11 100%); higher = more cells with five or more nucleoli
# Protocol: (§1)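 After 72 h, cells were fixed and stained with Hoechst and anti-fibrillarin, and nucleoli per nucleus were counted with CellProfiler. Values are plate-adjusted percent effect for the one-nucleolus and 5+ nucleoli phenotypes, normalised to siNT (0%) and to the positive controls siNOL11 or siKIF11 (100%), as the mean of biological triplicates. Percent viability is the nuclei count relative to siNT.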
# MCF10A [2] = assay: percent viability (nuclei count relative to siNT); higher = more viable cells
# Protocol: as §1
# MCF10A [3] = assay: one-nucleolus phenotype percent effect (relative to siNT 0% and siNOL11 100%); higher = more cells with one nucleolus (ribosome biogenesis inhibition)
# Protocol: as §1
Sequence,5+ nucleoli phenotype percent effect (MCF10A [1]) [%],percent viability (MCF10A [2]) [%],one-nucleolus phenotype percent effect (MCF10A [3]) [%]
AGCUGUCUGUGUUUUCCUUCUCAG [hsa-miR-6876-3p],-19.1,58.5,6.32
AGCUUCCAUGACUCCUGAUGGA [hsa-miR-2115-5p],-3.91,137,-7.01
AGCUUCUUUACAGUGCUGCCUUG [hsa-miR-103a-2-5p],-36.6,36.7,7.49
AGGAAACAGGGACCCA [hsa-miR-4261],-16.8,32.1,37.1
AGGAAAUGAGGCUGGCUAGGAGC [hsa-miR-5093],0.0169,25.8,23.8
AGGAAGCAAGAGAACCCUGUGG [hsa-miR-6828-5p],-41.5,26.9,18.9
AGGAAGCCCUGGAGGGGCUGGAG [hsa-miR-671-5p],-27.7,45.3,58.7
AGGAAUGUUCCUUCUUUGCC [hsa-miR-613],-37.9,44.4,36.5
AGGACCUGCGGGACAAGAUUCUU [hsa-miR-492],-18.8,49,9.32
AGGACCUUCCCUGAACCAAGGA [hsa-miR-659-5p],-33.7,40.3,34.3
AGGACUGAUCCUCUCGGGCAGG [hsa-miR-4740-5p],-14.8,24.1,47.7
AGGACUGGACUCCCGGCAGCCC [hsa-miR-4515],-14.9,37.2,15.9
AGGAGAAGUAAAGUAGAA [hsa-miR-4434],49.4,74.7,-15.7
AGGAGAAGUCGGGAAGGU [hsa-miR-5703],33.6,30.6,-5.15
AGGAGAGUGGAUUCCAGGUGGU [hsa-miR-5192],20.1,24.2,10.4
AGGAGAUCCUGGGUU [hsa-miR-3676-5p],-13.3,30.1,18.3
AGGAGCUAGCCAGGCAUAUGCA [hsa-miR-4633-3p],-40.1,15.3,37.9
AGGAGGAAUUGGUGCUGGUCUU [hsa-miR-766-5p],-33,5.17,33.8
AGGAGGACAAGUUGUGGGAU [hsa-miR-7154-3p],-9.57,7.01,39.7
AGGAGGAUGGAGAGCUGGGCCAGA [hsa-miR-6894-5p],6.67,28.1,22.2
AGGAGGCAGCGCUCUCAGGAC [hsa-miR-650],-3.4,33.8,23.2
AGGAGGCAUCUUGAGAAAUGGA [hsa-miR-3612],5.34,16.9,33.4
AGGAGGGAAGGGGCUGAGAACAGGA [hsa-miR-6797-5p],33.9,80.7,-10.1

Sequence,5+ nucleoli phenotype percent effect (MCF10A [1]) [%],percent viability (MCF10A [2]) [%],one-nucleolus phenotype percent effect (MCF10A [3]) [%]
AGGAGGGAGGAGAUGGGCCAAGUU [hsa-miR-1249-5p],-22.4,11.3,45.9
AGGAGGUGGUACUAGGGGCCAGC [hsa-miR-6851-5p],-20.3,15.2,31.8
AGGAUAGGAAGAAUGAAGUGCU [hsa-miR-5191],-7.65,40.6,14.1
AGGAUGAGCAAAGAAAGUAGAUU [hsa-miR-1255a],55.6,128,-24.4
AGGAUUUCAGAAAUACUGGUGU [hsa-miR-3167],-10.4,49.1,-14.6
AGGCAAGAUGCUGGCAUAGCU [hsa-miR-31-5p],-4.74,16.8,26
AGGCACCAGCCAGGCAUUGCUCAGC [hsa-miR-593-5p],-0.886,40.2,12.3
AGGCACGGUGUCAGCAGGC [hsa-miR-564],-12.9,67.8,11.4
AGGCAGCGGGGUGUAGUGGAUA [hsa-miR-885-3p],-36.7,19.2,61.2
AGGCAGGGGCUGGUGCUGGGCGGG [hsa-miR-4763-3p],5.7,52.2,9.32
AGGCAGGUUAUCUGGGCUG [hsa-miR-4736],13.2,12,19.8
AGGCAGUGUAGUUAGCUGAUUGC [hsa-miR-34c-5p],-6.79,13.2,38.8
AGGCAGUGUAUUGUUAGCUGGC [hsa-miR-449b-5p],36.8,128,-25.7
AGGCAUGGGAGGUCAGGUGA [hsa-miR-3622b-5p],-30.6,16.5,32.5
AGGCAUUGACUUCUCACUAGCU [hsa-miR-1256],2.63,32.9,1.57
AGGCCAUCAGCAGUCCAAUGAA [hsa-miR-4529-5p],9.36,52.1,2.62
AGGCCCUGUCCUCUGCCCCAG [hsa-miR-6775-3p],11.1,41.3,12.8
AGGCCUCUGUGACGUCACGGUGU [hsa-miR-4757-5p],66.8,62.5,-11.7
AGGCCUGUGGCUCCUCCCUCAG [hsa-miR-6735-3p],15.7,50.4,-1.31
AGGCGAUGUGGGGAUGUAGAGA [hsa-miR-6717-5p],-15.8,30.5,19.4
AGGCGCACCCGACCACAUGC [hsa-miR-6722-5p],-18.7,22.4,26.5
AGGCGGGGCGCCGCGGGACCGC [hsa-miR-663a],2.91,62.8,0.191
